According to PMC9922296, “Mechanistic insights into RNA surveillance by the canonical poly(A) polymerase Pla1 of the MTREC complex” (Nature Communications, 2023):
Where a chain is given by its changes, count along the chain named. Several values for one entry are separate records, joined by “and”; a condition that tells them apart may be missing. Equal values may be shown once. Blank lines part the entries; values can stand above or below the binder they belong to. No end group written: not given here.

Key:
[1] = target: T1, Pla1RRM (C-terminal RRM domain of Pla1, residues 352-566) (S. pombe, UniProt Q10295 352-566); test: NMR titration; 1.5-fold molar excess of unlabelled Pla1RRM added to 0.3 mM 15N-labelled GB1-tagged Red1 constructs; 1H,15N-HSQC; 293 K; sodium phosphate pH 6.5, 100 mM NaCl; conditions: both partners purified
T1 construct: Pla1, canonical poly(A) polymerase, S. pombe, C-terminal RRM domain, residues 352-566; also called Pla1 RRM domain; Pla1 CTD; source: E. coli BL21 (DE3) Rosetta2, purified (His-Trap, TEV cleavage, Resource Q, Superdex 200); not shown: His6, N-terminal, cleaved
T1 sequence (looked up): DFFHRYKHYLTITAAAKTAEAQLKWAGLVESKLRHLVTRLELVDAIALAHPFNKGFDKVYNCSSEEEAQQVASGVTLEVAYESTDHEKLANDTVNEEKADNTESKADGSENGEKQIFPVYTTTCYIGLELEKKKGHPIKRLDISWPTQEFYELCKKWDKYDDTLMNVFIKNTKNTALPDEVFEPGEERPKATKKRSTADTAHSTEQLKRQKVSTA

[2] = target: T1, Pla1RRM (C-terminal RRM domain of Pla1, …); test: ITC; Red1 or Iss1 construct in the syringe (400-500 µM) titrated into Pla1RRM (wild type or mutant) in the cell (40-50 µM); 25 °C; 20 mM HEPES pH 7.5, 150 mM NaCl, 2 mM BME; one-binding site model; each independent measurement listed; conditions: both partners purified
[3] = target: T1, Pla1RRM (C-terminal RRM domain of Pla1, …); test: ITC; control of the competition: Iss1 30-76 titrated into Pla1RRM pre-incubated with a 1.1-fold molar excess of Red1 288-345 W298A/F305A; 25 °C; 20 mM HEPES pH 7.5, 150 mM NaCl, 2 mM BME; conditions: both partners purified
[4] = target: T2, C-terminal RRM domain of Pla1 (Pla1RRM, residues 352-566), purified (S. pombe, UniProt Q10295 352-566); test: ITC; competition: Red1_(288-345) titrated into Pla1RRM pre-incubated with a 1.1-fold molar excess of Iss1_(30-76); 25 °C, 20 mM HEPES pH 7.5, 150 mM NaCl, 2 mM BME; conditions: both partners purified
T2 construct: canonical poly(A) polymerase Pla1, S. pombe, C-terminal RRM domain, residues 352-566; also called Pla1 CTD; source: E. coli BL21 (DE3) Rosetta2, purified (His-Trap, TEV cleavage, Resource Q, Superdex 200); not shown: His6, N-terminal, cleaved
T2 sequence (looked up): T1 sequence (looked up)

[5] = target: T2, C-terminal RRM domain of Pla1 (Pla1RRM, …); test: ITC; MicroCal PEAQ-ITC, 25 °C, 20 mM HEPES pH 7.5, 150 mM NaCl, 2 mM BME; 40-50 µM protein in the cell, 400-500 µM ligand in the syringe; one-binding site model; conditions: both partners purified
[6] = target: T3, Pla1EEE: Pla1RRM with K544/K545/R546 changed to EEE (S. pombe, UniProt Q10295 352-566, K544/K545/R546 to EEE); test: as above; conditions: both partners purified
T3 construct: canonical poly(A) polymerase Pla1, S. pombe, RRM domain, residues 352-566 with K544/K545/R546 to EEE; source: E. coli BL21 (DE3) Rosetta2, purified; not shown: His6, N-terminal, cleaved
T3 sequence (looked up): T1 sequence (looked up) with K193E, K194E, R195E

[7] = target: T4, Pla1_(EEQE): Pla1RRM with K559/R560/Q561/K562 changed to EEQE (S. pombe, UniProt Q10295 352-566, K559/R560/Q561/K562 to EEQE); test: as above; conditions: both partners purified
T4 construct: canonical poly(A) polymerase Pla1, S. pombe, RRM domain, residues 352-566 with K559/R560/Q561/K562 to EEQE; source: E. coli BL21 (DE3) Rosetta2, purified; not shown: His6, N-terminal, cleaved
T4 sequence (looked up): T1 sequence (looked up) with K208E, R209E, K211E

[8] = target: T5, Pla1RRM with the charge reversal mutation K368E (S. pombe, UniProt Q10295 352-566, K368E); test: as above; conditions: both partners purified
T5 construct: canonical poly(A) polymerase Pla1, S. pombe, RRM domain, residues 352-566 with K368E; source: E. coli BL21 (DE3) Rosetta2, purified; not shown: His6, N-terminal, cleaved
T5 sequence (looked up): T1 sequence (looked up) with K17E

[9] = target: T6, Pla1EEE: Pla1RRM with K544/K545/R546 changed to EEE (S. pombe, UniProt Q10295 352-566, K544/K545/R546 to EEE); test: ITC
T6 sequence: T1 sequence (looked up) with K193E, K194E, R195E

[10] = target: T7, Pla1RRM with the charge reversal mutation K368E (S. pombe, UniProt Q10295 352-566, K368E); test: ITC
T7 sequence: T1 sequence (looked up) with K17E

[11] = target: T8, Pla1_(EEQE): Pla1RRM with K559/R560/Q561/K562 changed to EEQE (S. pombe, UniProt Q10295 352-566, K559/R560/Q561/K562 to EEQE); test: ITC
T8 sequence: T1 sequence (looked up) with K208E, R209E, K211E

Pla1RRM K368E = target: T9, Pla1RRM K368E (S. pombe, UniProt Q10295 352-566, K368E); test: ITC; Red1 or Iss1 construct in the syringe (400-500 µM) titrated into Pla1RRM (wild type or mutant) in the cell (40-50 µM); 25 °C; 20 mM HEPES pH 7.5, 150 mM NaCl, 2 mM BME; one-binding site model; each independent measurement listed; conditions: both partners purified
T9 construct: Pla1, S. pombe, C-terminal RRM domain, residues 352-566; source: E. coli BL21 (DE3) Rosetta2, purified (His-Trap, TEV cleavage, Resource Q, Superdex 200); not shown: His6, N-terminal, cleaved
T9 sequence (looked up): T1 sequence (looked up) with K17E

Pla1RRM EEQE = target: T10, Pla1RRM EEQE (S. pombe, UniProt Q10295 352-566, K559/R560/Q561/K562 to EEQE); test: as above; conditions: both partners purified
T10 construct: Pla1, S. pombe, C-terminal RRM domain, residues 352-566; also called Pla1_(EEQE); K559/R560/Q561/K562 to EEQE; source: E. coli BL21 (DE3) Rosetta2, purified (His-Trap, TEV cleavage, Resource Q, Superdex 200); not shown: His6, N-terminal, cleaved
T10 sequence (looked up): T1 sequence (looked up) with K208E, R209E, K211E

Pla1RRM EEE = target: T11, Pla1RRM EEE (S. pombe, UniProt Q10295 352-566, K544/K545/R546 to EEE); test: as above; conditions: both partners purified
T11 construct: Pla1, S. pombe, C-terminal RRM domain, residues 352-566; also called Pla1EEE; K544/K545/R546 to EEE; source: E. coli BL21 (DE3) Rosetta2, purified (His-Trap, TEV cleavage, Resource Q, Superdex 200); not shown: His6, N-terminal, cleaved
T11 sequence (looked up): T1 sequence (looked up) with K193E, K194E, R195E

[12] = target: T1, Pla1RRM (C-terminal RRM domain of Pla1, …); test: ITC; competition: Red1 288-345 titrated into Pla1RRM pre-incubated with a 1.1-fold molar excess of Iss1 30-76; 25 °C; 20 mM HEPES pH 7.5, 150 mM NaCl, 2 mM BME; conditions: both partners purified

binding result [1]: binds
B1: GB1-tagged Red1 288-322 (domain or fragment, S. pombe)
chain: ISLPLLKQDDWLSSSKPFGSSTPNVVIEFDSDDDG
modifications: not fully specified (N-terminus); also: 15N-labelled
notes: source: E. coli BL21 (DE3), 15N-labelled in M9 minimal medium, purified; not shown: GB1, N-terminal, kept; His6, C-terminal, kept

Kd [2]: 2.11 µM and 2.94 µM
stoichiometry N [2]: 1
stoichiometry N [3]: 0.97 and 1
B2: Iss1 30-76 (domain or fragment, S. pombe)
chain: VSNAKSPEQASEESDDSDIEFIIETKPGERAEPLGGSIATLGSTRPS
notes: Iss1 (fission yeast orthologue of scFip1), S. pombe, residues 30-76; source: E. coli BL21 (DE3) Rosetta2, purified (His-Trap, TEV cleavage, second IMAC flow-through, Superdex 75); not shown: His-Thioredoxin, N-terminal, cleaved

KD into the pre-formed Pla1RRM-Iss1_(30-76) complex [4]: 11 µM
Kd [5]: 1.4 µM
fold loss in affinity against wild-type Pla1RRM [6]: ~7 fold
fold loss in affinity against wild-type Pla1RRM [7]: ~2 fold
fold loss in affinity against wild-type Pla1RRM [8]: ~13 fold
Kd [9]: 9.8 µM
Kd [10]: 17.8 µM
Kd [11]: 2.8 µM
B3: Red1 residues 288-345 (Pla1 interaction region), purified (domain or fragment, S. pombe, UniProt Q9UTR8 288-345, looked up)
chain: ISLPLLKQDDWLSSSKPFGSSTPNVVIEFDSDDDGDDFSNSKIEQSNLEKPPSNSENG
notes: source: E. coli BL21 (DE3), purified (His-Trap, TEV cleavage, second IMAC, Superdex 75); not shown: GB1, N-terminal, cleaved; His6, C-terminal, kept

Kd (Pla1RRM K368E): 15.3 µM and 20.3 µM
stoichiometry N (Pla1RRM K368E): 0.8 and 1
Kd (Pla1RRM EEQE): 3.28 µM and 2.27 µM
stoichiometry N (Pla1RRM EEQE): 1.03 and 0.97
Kd (Pla1RRM EEE): 9.43 µM and 9.98 µM
stoichiometry N (Pla1RRM EEE): 0.86 and 0.94
Kd [2]: 1.56 µM and 1.15 µM and 1.37 µM
stoichiometry N [2]: 1.05 and 0.952 and 1.19
stoichiometry N [12]: 1.11 and 1.82
B4: Red1 288-345 (domain or fragment, S. pombe)
chain: B3 chain
notes: as for B3
